According to PMC3196555:

Experiments:
TrkA = TrkA (UniProt P35739); assay: co-IP; 293T cells transfected with pCMV5-TrkA and a myc construct, 100 ng/ml NGF for 15 min; RIPA lysate precipitated with anti-TrkA antibody, blotted with anti-TrkA and anti-myc
myc-SH2B3 (human) = myc-SH2B3 (human) (UniProt Q9UQQ2); assay: co-IP; 293T cells transfected with pCMV5-TrkA and a myc construct, 100 ng/ml NGF for 15 min; RIPA lysate precipitated with anti-myc antibody, blotted with anti-myc and anti-TrkA

Chain of TrkA (P35739 33-799): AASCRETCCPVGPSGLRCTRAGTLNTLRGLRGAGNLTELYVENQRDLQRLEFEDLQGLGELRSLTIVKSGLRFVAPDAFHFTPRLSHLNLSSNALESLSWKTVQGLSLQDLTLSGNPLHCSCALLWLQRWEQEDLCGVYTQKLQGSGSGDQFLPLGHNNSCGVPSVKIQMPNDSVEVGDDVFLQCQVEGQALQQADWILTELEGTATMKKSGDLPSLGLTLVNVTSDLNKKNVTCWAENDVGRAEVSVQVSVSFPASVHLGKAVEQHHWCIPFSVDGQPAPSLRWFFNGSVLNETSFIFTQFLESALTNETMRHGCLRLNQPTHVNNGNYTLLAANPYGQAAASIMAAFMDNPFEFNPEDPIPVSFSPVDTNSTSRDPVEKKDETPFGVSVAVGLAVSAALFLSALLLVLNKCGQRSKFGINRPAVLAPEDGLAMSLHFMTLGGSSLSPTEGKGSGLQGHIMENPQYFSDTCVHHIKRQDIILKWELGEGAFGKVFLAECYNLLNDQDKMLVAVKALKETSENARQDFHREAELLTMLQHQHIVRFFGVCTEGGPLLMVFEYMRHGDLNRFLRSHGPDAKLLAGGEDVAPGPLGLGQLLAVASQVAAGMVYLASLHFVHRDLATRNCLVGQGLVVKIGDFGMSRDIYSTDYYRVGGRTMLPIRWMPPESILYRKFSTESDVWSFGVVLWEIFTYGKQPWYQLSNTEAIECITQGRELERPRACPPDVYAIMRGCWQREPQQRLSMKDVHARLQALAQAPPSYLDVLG

Row | Substance | relative amount co-precipitated with TrkA, as percent of SH2B1β (TrkA) | relative amount of TrkA co-precipitated, as percent of that with SH2B1β (myc-SH2B3 (human))
1 | myc-SH2B3 (from UniProt Q9UQQ2 1-575) (natural protein) | 88% | 
2 | TrkA (from UniProt P35739 33-799) (receptor) |  | 10%
